According to patent publication US20050069921, “Compositions, kits, and methods for stimulation of homologous recombination” (published 2005):

How the values were obtained:
I-SceI = experiment: cell_activity; details: homologous recombination; about 2.5-fold fewer broken ends than wild-type core RAG
[1] = molecular target: T1, RAG-1/RAG-2 core, wild type (Mus musculus, UniProt P15919;P21784 P15919:330-1040,P21784:1-387); experiment: cell_activity; details: homologous recombination, extrachromosomal; cleavage seen by Southern blot (FIG. 3C)
T1 sequence 1: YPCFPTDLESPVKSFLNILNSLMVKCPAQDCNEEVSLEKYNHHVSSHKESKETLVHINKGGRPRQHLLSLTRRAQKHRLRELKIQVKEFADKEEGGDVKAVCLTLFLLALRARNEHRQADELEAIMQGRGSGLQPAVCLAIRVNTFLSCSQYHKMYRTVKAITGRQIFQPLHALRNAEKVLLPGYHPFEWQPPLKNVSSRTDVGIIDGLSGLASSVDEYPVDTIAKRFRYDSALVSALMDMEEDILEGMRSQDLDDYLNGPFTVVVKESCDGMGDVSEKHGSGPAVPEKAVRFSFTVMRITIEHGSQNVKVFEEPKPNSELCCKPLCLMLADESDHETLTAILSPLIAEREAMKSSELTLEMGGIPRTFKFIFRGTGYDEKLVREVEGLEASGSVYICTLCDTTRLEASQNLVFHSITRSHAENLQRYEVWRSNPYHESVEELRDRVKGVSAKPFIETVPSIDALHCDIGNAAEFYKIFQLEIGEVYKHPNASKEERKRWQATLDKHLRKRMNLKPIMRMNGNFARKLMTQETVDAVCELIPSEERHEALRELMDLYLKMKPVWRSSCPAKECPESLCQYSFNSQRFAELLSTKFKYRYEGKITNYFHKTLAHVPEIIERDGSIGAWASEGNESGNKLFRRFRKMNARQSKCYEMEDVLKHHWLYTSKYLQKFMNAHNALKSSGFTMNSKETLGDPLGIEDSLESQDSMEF
T1 sequence 2: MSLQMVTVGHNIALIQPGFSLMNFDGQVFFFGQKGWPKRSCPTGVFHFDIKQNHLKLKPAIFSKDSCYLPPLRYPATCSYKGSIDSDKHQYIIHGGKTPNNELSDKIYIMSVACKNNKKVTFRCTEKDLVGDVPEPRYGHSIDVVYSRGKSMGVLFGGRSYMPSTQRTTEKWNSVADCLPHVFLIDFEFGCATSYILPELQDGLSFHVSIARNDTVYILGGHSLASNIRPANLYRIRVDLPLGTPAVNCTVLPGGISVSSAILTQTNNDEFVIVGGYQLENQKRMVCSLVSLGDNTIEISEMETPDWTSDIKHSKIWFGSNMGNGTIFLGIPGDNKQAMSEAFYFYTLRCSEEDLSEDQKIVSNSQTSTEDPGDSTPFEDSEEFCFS

[2] = molecular target: T2, RAG-1 R838A/K839A/R840A core/RAG-2 core RAG-1 R838A/K839A/R840A (Mus musculus) (UniProt P15919+P21784); experiment: cell_activity; details: homologous recombination; signal ends 2.5-fold lower than wild type (FIG. 3C)
T2 sequence 1: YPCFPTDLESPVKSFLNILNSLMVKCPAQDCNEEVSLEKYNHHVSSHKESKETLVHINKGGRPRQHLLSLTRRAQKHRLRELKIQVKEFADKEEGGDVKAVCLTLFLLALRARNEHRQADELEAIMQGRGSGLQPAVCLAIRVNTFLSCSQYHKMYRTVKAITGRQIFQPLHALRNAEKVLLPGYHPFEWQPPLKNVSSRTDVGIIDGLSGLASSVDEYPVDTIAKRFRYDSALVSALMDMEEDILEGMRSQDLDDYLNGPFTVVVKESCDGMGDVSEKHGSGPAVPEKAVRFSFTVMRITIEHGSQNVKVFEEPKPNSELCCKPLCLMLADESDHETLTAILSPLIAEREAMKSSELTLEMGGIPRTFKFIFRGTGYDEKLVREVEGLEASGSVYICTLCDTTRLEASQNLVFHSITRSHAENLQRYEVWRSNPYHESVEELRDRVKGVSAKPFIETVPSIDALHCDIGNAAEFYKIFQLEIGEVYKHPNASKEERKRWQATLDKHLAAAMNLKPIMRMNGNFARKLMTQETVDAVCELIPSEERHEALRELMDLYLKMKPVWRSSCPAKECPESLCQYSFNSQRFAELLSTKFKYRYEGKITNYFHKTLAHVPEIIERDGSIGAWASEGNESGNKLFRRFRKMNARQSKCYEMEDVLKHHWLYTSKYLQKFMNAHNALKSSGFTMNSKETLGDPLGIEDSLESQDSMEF
T2 sequence 2: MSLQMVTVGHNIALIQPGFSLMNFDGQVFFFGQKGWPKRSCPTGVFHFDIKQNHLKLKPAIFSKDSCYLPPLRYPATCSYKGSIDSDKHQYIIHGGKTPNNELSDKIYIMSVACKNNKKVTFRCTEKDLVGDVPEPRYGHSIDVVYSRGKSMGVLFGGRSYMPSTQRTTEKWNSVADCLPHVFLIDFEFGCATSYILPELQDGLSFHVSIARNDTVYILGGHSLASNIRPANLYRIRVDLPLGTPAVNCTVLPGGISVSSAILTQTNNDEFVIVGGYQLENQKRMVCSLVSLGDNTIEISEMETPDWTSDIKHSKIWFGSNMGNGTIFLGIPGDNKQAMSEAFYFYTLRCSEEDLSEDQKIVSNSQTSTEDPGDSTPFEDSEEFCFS

RAG-1/RAG-2 full-length = RAG-1/RAG-2 full-length (UniProt P15919;P21784 P15919:1-1040,P21784:1-527); experiment: cell_activity; homologous recombination, integrated single 12-RSS substrate; details: chain copies: 2,2
Method: (§1) Relative stimulation is calculated by dividing the percentage of CFP-positive cells of experimental (nuclease-containing) transfections by the percentage of CFP-positive cells present in the DDE RAG mutant expressing transfection (negative control). It is important to maintain constant (DNA) in each transfection because increases in DNA (including non-substrate molecules) nonspecifically stimulate homologous recombination, as recently reported (Hostager et al., 2003). Experiments have been repeated over a dozen times on three different flow cytometers; FIGS. 3, 4, 6, and 7 show data from five experiments on the Becton Dickinson LSRII.
(§2) The next set of experiments took a complementary approach. Instead of using nick-only RAG proteins, a nick-only substrate was used (i.e., a single 12-RSS, which readily undergoes nicking in vitro (Cuomo et al., 1996; Ramsden et al., 1996) but yields very poor DSB formation in vivo (Steen et al., 1997)). […] Even when the nick-only mutants are assayed on the single RSS substrate, they are able to stimulate homologous recombination as efficiently as the full-length or core wild-type RAG proteins (FIG. 7). […]

[3] = molecular target: T1, RAG-1/RAG-2 core, wild type; experiment: cell_activity; homologous recombination, integrated single 12-RSS substrate; robust also for full-length RAG; details: tags: GST-RAG-1 core (pEBG-1DN) and RAG-2 core (pMal-1 vector); chain copies: 2,2
Method: as §1, §2

I-SceI site substrate
activity (fold over wild-type core RAG) (I-SceI): 9

SE substrate (pJH289 recombination zone, 12/23 RSS pair)
activity (fold over DDE) [1]: 13 | activity (fold over DDE) [2]: 205

B1: 12-RSS substrate (dsDNA)
DNA 1: CACAGTGCTACAGACTGGAACAAAAACC
DNA 2: GGTTTTTGTTCCAGTCTGTAGCACTGTG
activity (RAG-1/RAG-2 full-length): 15 fold over DDE | activity [3]: 15 fold over DDE
